Measurements published in patent US20220296727A1, “Immunoconjugate” (DendroCyte BioTech Pty Ltd, priority 2019, published 2022).

Experiments:
HL-60 = settings: comparator agents; cited from earlier work
U937 = settings: comparator agents; cited from earlier work
THP-1 = settings: comparator agents; cited from earlier work
human CD300f = human CD300f (human, UniProt Q8TDQ1 20-290); test: cell-based or functional assay
HL-60 cells = test: Internalisation assay by flow cytometry; format: cell-based
Description: DCR-2 (IgG1), and as an isotype control, the anti-tetanus toxoid mAb, CMRF-81 (IgG1) which were both produced, purified and directly conjugated to phycoerythrin (PE) in house (Abadir et al. Mol Oncol. 2019; 13(10):2107-2120). Cells were incubated with DCR-2-PE or CMRF-81-PE (10 μg/ml) on ice for 20 min, washed to remove unbound mAb then incubated at 37° C./5% CO2 to allow internalisation for the indicated times.
After incubation, residual mAb remaining on the cell surface was detected with a secondary goat anti-mouse (GAM) IgG-AF488 antibody. Cells were fixed in 1% paraformaldehyde/PBS for flow cytometry analysis. The surface and total relative Mean Fluorescent Index (MFI) was calculated as the (MFI of binding antibody at time point−MFI of isotype control at time point) at 37° C./(MFI of binding antibody at time point−MFI of isotype control at time point) at 0° C. The percent internalised was assessed by 100−(relative MFI surface staining/relative MFI total staining). In immunofluorescent microscopy experiments cells were stained with DCR-2 then air-dried and fixed with 4% paraformaldehyde or incubated for 37° C. for 30 minutes then fixed. Rehydration was performed using 1% BSA/PBS prior to staining with GAM IgG-AF488 antibody and 18 μM DAPI (ThermoFisher).

dendritic cells = test: Activation marker expression on dendritic cells after LPS; format: cell-based, human; settings: HLA-DR, CD11c, CD80, CD83; 200 pmol
Description: The activity of DCR-2PBD on the upregulation of activation markers on DC was measured by incubating whole PBMC with DCR-2PBD or no antibody for […] before washing, followed by 12 hours of LPS stimulation. Control DC were not exposed to DCR-2PBD or LPS. Myeloid DC were gated out by excluding dead cells, Lin^+(CD3, CD20, CD19, CD56, CD14), then gating on HLA-DR^+ and CD11c^+ cells. The activation markers CD80 and CD83 were assessed via flow cytometry. The changes on activation were determined by comparing activated DC incubated with or without DCR-2PBD compared to inactivated DC.
PBMC were incubated in complete RPMI media with or without DCR-2-PBD (200 pmol). After 12 hours, washed cells were incubated for a further 12 hours with or without LPS then phenotyped for the expression of activation markers on DC populations. MoDC were derived from CD14+ monocytes as described previously (Fromm et al. J Leukoc Biol. 2020; 107(2):323-339). DCR-2-PBD or isotype-PBD (200 pmol) were added for 72 hours prior to enumeration of live cells by flow cytometry.

AML = test: NOS/SCID mouse model of AML; format: in vivo; settings: unconjugated antibody alone

human CD300f, sequence (Q8TDQ1 20-290): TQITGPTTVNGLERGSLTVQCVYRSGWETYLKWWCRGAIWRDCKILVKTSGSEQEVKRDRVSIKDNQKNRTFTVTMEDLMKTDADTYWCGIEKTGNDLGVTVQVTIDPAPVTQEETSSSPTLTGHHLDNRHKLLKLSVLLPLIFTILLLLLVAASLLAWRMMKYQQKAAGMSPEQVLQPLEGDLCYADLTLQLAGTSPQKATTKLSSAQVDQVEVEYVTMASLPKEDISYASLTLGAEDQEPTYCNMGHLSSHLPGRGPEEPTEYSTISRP

COc1cccc2c1C(=O)c1c(O)c3c(c(O)c1C2=O)C[C@@](O)(C(=O)CO)C[C@@H]3O[C@H]1C[C@H](N)[C@H](O)[C@H](C)O1 [Doxorubicin]
IC50 (HL-60): 345000 nM

CS(=O)(=O)OCCCCOS(C)(=O)=O [Busulfan]
IC50 (HL-60): 354000 nM

Gemtuzumab-Ozogamicin: approved AML therapeutic which targets CD33
IC50 (HL-60): 0.0133 nM
IC50 (U937): 0.127 nM
IC50 (THP-1): 0.04 nM

B1: DCR-2-pyrrolobenzodiazepine (PBD) immunoconjugate (antibody, V domains shown)
VH: MESGGGLVQPGGPLKLSCAASGFGFSGSWMSWVRQAPGKGLEWIGQINPDSSTINYTPSLKDKFIISRDNAKNTLYLQINKVRSEDTALYYCARRGFFEGYSAWFAYW
VL: ILMTQTPKFLLVSAGDRVTITCKASQSVSNDVAWYQQKPGQSPSLLIYYASNRNTGVPDRFTGSGYETDFTFTISTVQAEDLAVYFCQQDYTSPWTFGGG
modifications: PBD dimer linked through the Cathepsin B-cleavable linker MA-PEG4-VA-PBD to native cysteines (reduced interchain disulfides); drug to antibody molar ratio 3.3; positions not given
IC50 (pM), cytotoxicity on HL-60 cells (human CD300f): 5.45 pM
IC50 (pM), cytotoxicity on THP-1 cells (human CD300f): 29.9 pM
IC50 (pM), cytotoxicity on U937 cells (human CD300f): 6.74 pM

B2: DCR-2: murine IgG1 kappa monoclonal antibody binding the extracellular domain of CD300f; hybridoma CBA20160029 (antibody, V domains shown)
VH: B1 VH
VL: B1 VL
Internalisation (HL-60 cells; 30 minutes): significant
Internalisation (HL-60 cells; 180 minutes): greater than 50%
up-regulation of activation markers on dendritic cells after LPS (dendritic cells): does not prevent upregulation of activation markers CD80 and CD83
survival and disease burden (AML): does not prolong survival or reduce disease burden
